Columns and labels:
[1] = molecular target: Nup188 (Xenopus laevis (endogenous in Xenopus egg cytosol)); assay: co-IP
[2] = molecular target: Nup205 (Xenopus laevis (endogenous in Xenopus egg cytosol)); assay: co-IP

percent of Nup93 co-immunoprecipitated [1]: 45%
percent of Nup93 co-immunoprecipitated [2]: 45%
B1: Nup93 (natural protein)
chain: MDGEGFGELLQQAEQLAAETEGVTELPHVERNLQEIQQAGERLRSKTMTRTSQESANVKASVLLGSRGLDISHISQRLESLSAATTFEPLEPVKDTDIQGFLKNEKDNALLSAIEESRKRTFVMAEEYHRESMLVEWEQVKQRVLHTLLASGEDALDFTQESETSYISESGAPGRSSLDNVEMAYARQMYMYNEKVVSGHLQPSLVDLCTEAAERLDDKNVSDLWVMVKQMTDVPLIPASDTLKSRCSGQMQMAFVRQALNYLEQSYKNYTLISVFANLQQAQLGGVPGTYNLVRSFLNIRLPTPIPGLQDGEIEGYPVWALIYYCMRCGDLMAAQQVVNRAQHQLGDFKNCFQEYIHNKDRRLSPTTENKLRLHYRRAVRASTDPYKRAVYCIIGRCDVSDNHSEVADKTEDYLWLKLSQVCFEDEANSSPQDRLTLPQFQKQLFEDYGESHFAVNQQPYLYFQVLFLTAQFEAAIAFLFRLERTRCHAVHVALALFELKLLLKSTGQSAQLLSQEPGEPQGVRRLNFIRLLMLYTRKFEPTDPREALQYFYFLRNEKDNQGESMFLRCVSELVIESREFDMLLGKLEKDGSRKPGAIDKFTRDTKTIINKVASVAENKGLFEEAAKLYDLAKNPDKVLELTNKLLSPVVSQISAPQSNRERLKNMALAIAERYKSQGVSAEKSINSTFYLLLDLITFFDEYHAGHIDLSFDVIERLKLVPLSQDSVEERVAAFRNFSDEIRHNLSEILLATMNILFTQYKRLKGSGPTTLGRPQRVQEDKDSVLRSQARALITFAGMIPYRMSGDTNARLVQMEVLMN

— PMC2894445
